The target of data set [1] is Cphy1178(20–462), acylating aldehyde dehydrogenase from the Clostridium phytofermentans fucose/rhamnose utilisation BMC, N-terminal truncation (Clostridium phytofermentans). In words: native MS; nano-ESI ion-mobility MS (Synapt G2); protein buffer-exchanged into 100 mM ammonium acetate pH 7.0; tetramer.
The target is the same in data set [2]. In words: native MS; solution-phase disassembly: tetramer disrupted by addition of 40% methanol (v/v) prior to MS analysis; tetramer to dimers and monomers.
Data set [3] has the same target. In words: crystal structure; X-ray, space group I 41 2 2, one chain in the asymmetric unit; tetramer generated by crystal symmetry (D2); crystals from 0.1 M sodium acetate pH 4.7, 1.8 M ammonium sulphate, soaked with 10 mM NAD+.
Data set [4] concerns the target T1, Cphy1178(20–462) (Lachnoclostridium phytofermentans, UniProt A9KN57).
T1 construct: gene Cphy_1178; E. coli BL21(DE3), pET28a; tag state not clearly stated; tetramer 4 x 47,452 Da; also misprinted as 20-426
T1 sequence (A9KN57 20-462): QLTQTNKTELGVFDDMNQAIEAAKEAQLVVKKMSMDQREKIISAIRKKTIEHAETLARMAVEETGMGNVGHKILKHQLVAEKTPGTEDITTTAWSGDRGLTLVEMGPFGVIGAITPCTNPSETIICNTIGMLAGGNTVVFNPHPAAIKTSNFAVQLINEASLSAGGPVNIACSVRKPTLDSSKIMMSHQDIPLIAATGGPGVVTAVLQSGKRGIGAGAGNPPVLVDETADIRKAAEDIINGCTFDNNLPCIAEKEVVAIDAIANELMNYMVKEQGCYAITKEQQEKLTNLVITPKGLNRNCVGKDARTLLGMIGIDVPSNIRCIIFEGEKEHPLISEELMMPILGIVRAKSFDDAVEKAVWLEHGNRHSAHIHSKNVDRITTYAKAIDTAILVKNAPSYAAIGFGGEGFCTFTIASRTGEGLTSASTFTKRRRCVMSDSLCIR
In words: LC-MS detection of propionyl-CoA. In kind it is biochemical. The note with it: 100 µM CoA, 75 µM NAD+, 10 mM propionaldehyde, 100 mM KCl, pH 8.0, room temperature.

For data set [5], the target named is T1, Cphy1178(20–462). As to the kind of experiment: LC-MS. In kind it is biochemical. The note with it: 100 µM CoA, 75 µM NAD+, 10 mM propionaldehyde, 100 mM KCl, pH 8.0, room temperature.
In data set [6] the target is T1, Cphy1178(20–462). In words: NADH formation. It counts as biochemical. The note with it: substrate inhibition; 0.66 mM NAD+, 100 mM KCl, 10 mM 2-mercaptoethanol, no CoA, pH 8.0, 21 °C.
Substrate in data set [7]: CCCCCC=O
In words: purified protein. The note with it: 0.66 mM NAD+, 100 mM KCl, 10 mM 2-mercaptoethanol, no CoA, pH 8.0, 21 °C.

Substrate in data set [8]: CC=O
As to the kind of experiment: purified protein. The note with it: 0.66 mM NAD+, 100 mM KCl, 10 mM 2-mercaptoethanol, no CoA, pH 8.0, 21 °C. It counts as biochemical, Lachnoclostridium phytofermentans.

Substrate in data set [9]: CCC=O
In words: purified protein. It counts as biochemical, Lachnoclostridium phytofermentans. The note with it: 0.66 mM NAD+, 100 mM KCl, 10 mM 2-mercaptoethanol, no CoA, pH 8.0, 21 °C.

Substrate in data set [10]: CCCC=O
As to the kind of experiment: purified protein. It counts as biochemical, Lachnoclostridium phytofermentans. The note with it: 0.66 mM NAD+, 100 mM KCl, 10 mM 2-mercaptoethanol, no CoA, pH 8.0, 21 °C.

Substrate in data set [11]: CCCCC=O
In words: purified protein. It counts as biochemical, Lachnoclostridium phytofermentans. Conditions: 0.66 mM NAD+, 100 mM KCl, 10 mM 2-mercaptoethanol, no CoA, pH 8.0, 21 °C.

The results in this text go back to publication PMC4762007, “Insight into Coenzyme A cofactor binding and the mechanism of acyl-transfer in an acylating aldehyde dehydrogenase from Clostridium phytofermentans” (Scientific Reports, 2016).

One may read the stoichiometry N as the number of molecules, sites or subunits per partner or assembly. For the molecule “Cphy1178(20–462), acylating aldehyde dehydrogenase from the Clostridium phytofermentans fucose/rhamnose utilisation BMC, N-terminal truncation (enzyme)”, the values for the stoichiometry N in [1], in [2] and in data set [3] were 4, 2 and 4, respectively.

Consider `CC(C)(COP(=O)(O)OP(=O)(O)OC[C@H]1O[C@@H](n2cnc3c(N)ncnc32)[C@H](O)[C@@H]1OP(=O)(O)O)[C@@H](O)C(=O)NCCC(=O)NCCS` [CoA], for which, in data set [4], the “LC-MS detection of propionyl-CoA” value is “reaction mixtures containing NAD^+ and CoA”.

Regarding `CCC(=O)SCCNC(=O)CCNC(=O)[C@H](O)C(C)(C)COP(=O)(O)OP(=O)(O)OC[C@H]1O[C@@H](n2cnc3c(N)ncnc32)[C@H](O)[C@@H]1OP(=O)(O)O` [propionyl-CoA], the LC-MS entry in [5] was “LC-MS analysis confirmed the presence of the propionyl-CoA product”.

`CCC=O` [Propionaldehyde]: the “Ki” value in data set [6] was 17.31 ± 0.46 mM.

For `CCCCCC=O` [Hexanaldehyde], the “Ki” value in data set [6] was 23.52 ± 1.28 mM.

For the molecule `CCCCC=O` [Pentanaldehyde], the “Ki” value in [6] was 12.61 ± 0.46 mM.

B1: Cphy1178(20–462) (Lachnoclostridium phytofermentans ISDg) (protein)
chain: T1 sequence (A9KN57 20-462)
notes: E. coli BL21(DE3), pET28a; tag state not clearly stated; tetramer 4 x 47,452 Da; also misprinted as 20-426
Broadly, the Km is the concentration of substrate that gives half-maximal velocity. For orientation: kcat means the number of substrate molecules converted per active site and unit of time at saturation. The term kcat/Km denotes the turnover number divided by the Michaelis constant. As to B1, the Km was found to be 2900 ± 100 µM in data set [7]; 5160 ± 100 µM in data set [8]; 820 ± 20 µM in data set [9]; 1740 ± 70 µM in data set [10]; 2200 ± 700 µM in [11]. Besides, the kcat in [7] worked out at 5.61 s⁻¹; in data set [8] it was 1.62 ± 0.02 s⁻¹; in data set [9] it was 3.45 ± 0.03 s⁻¹; in data set [10], 3.44 ± 0.7 s⁻¹; in data set [11], 5.44 ± 0.1 s⁻¹. Further, the kcat/Km was 1930 M⁻¹ s⁻¹ in data set [7]; 310 M⁻¹ s⁻¹ in data set [8]; 4210 M⁻¹ s⁻¹ in data set [9]; 1980 M⁻¹ s⁻¹ in data set [10]; 2470 M⁻¹ s⁻¹ in data set [11].
